According to patent publication US20220056119A1:

What was measured:
[1] = biological target: activin Type II receptors (ActRIIA and ActRIIB) on A204/CAGAx12-Luc cells; assay: cell-based or functional assay
[2] = biological target: Activin A (R&D Systems, #338-AC) (human) (UniProt P08476); assay: SPR blocking: 5 nM Activin A + 60 nM binder over hActRIIB-hFc (Control 4) surface
[3] = biological target: Activin A (R&D Systems, #338-AC) (human) (UniProt P08476); assay: SPR blocking: 5 nM Activin A + 30 nM binder over hActRIIB-hFc (Control 4) surface
[4] = biological target: Activin A (R&D Systems, #338-AC) (human) (UniProt P08476); assay: SPR blocking: 5 nM Activin A + 15 nM binder over hActRIIB-hFc (Control 4) surface
[5] = biological target: Activin A (R&D Systems, #338-AC) (human) (UniProt P08476); assay: SPR blocking: 5 nM Activin A + 7.50 nM binder over hActRIIB-hFc (Control 4) surface
[6] = biological target: Activin A (R&D Systems, #338-AC) (human) (UniProt P08476); assay: SPR blocking: 5 nM Activin A + 0.94 nM binder over hActRIIB-hFc (Control 4) surface
[7] = biological target: Activin A (R&D Systems, #338-AC) (human) (UniProt P08476); assay: SPR blocking: 5 nM Activin A + 3.75 nM binder over hActRIIB-hFc (Control 4) surface
[8] = biological target: Activin A (R&D Systems, #338-AC) (human) (UniProt P08476); assay: SPR blocking: 5 nM Activin A + 1.88 nM binder over hActRIIB-hFc (Control 4) surface
[9] = biological target: Activin A (R&D Systems, #338-AC) (human) (UniProt P08476); assay: SPR blocking: 5 nM Activin A + 0.00 nM binder over hActRIIB-hFc (Control 4) surface
[10] = biological target: Activin A (homodimer of two inhibin betaA subunits) (human) (UniProt P08476); assay: cell-based or functional assay
Sequence of Activin A (homodimer of two inhibin betaA subunits) (human) (P08476 311-426 limits assumed): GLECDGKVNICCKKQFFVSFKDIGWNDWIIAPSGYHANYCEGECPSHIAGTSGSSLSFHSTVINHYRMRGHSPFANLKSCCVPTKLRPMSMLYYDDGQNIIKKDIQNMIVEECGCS

Sequence of Activin A (R&D Systems, #338-AC) (human) (P08476 311-426 limits assumed): as above

Substance | activation of the A204/CAGAx12-Luc cell line (Smad 2/3-luciferase reporter), EC50 [1] | % bound RU w/ no inhibitor [2] | % bound RU w/ no inhibitor [3] | % bound RU w/ no inhibitor [4] | % bound RU w/ no inhibitor [5] | % bound RU w/ no inhibitor [6] | % bound RU w/ no inhibitor [7] | % bound RU w/ no inhibitor [8] | % bound RU w/ no inhibitor [9] | further results
Activin AB (heterodimer of one betaA subunit and one betaB subunit) (from UniProt P08476 311-426; P09529 293-407) (ligand) | 0.019 nM | – | – | – | – | – | – | – | – | –
Activin AC (heterodimer of one betaA subunit and one betaC subunit) (from UniProt P55103 237-352) (ligand) | 4.4 nM | – | – | – | – | – | – | – | – | –
Control 3 (murine anti-Activin A monoclonal antibody from R&D Systems, catalog number MAB3381) | – | 2% | 1% | 2% | 33% | 135% | 120% | 133% | 100% | –
GDF11 (from UniProt O95390 299-407) (ligand) | – | – | – | – | – | – | – | – | – | activation of A204/CAGAx12-Luc cells, EC50 [1]: 0.084 nM; activation of A204/CAGAx12-Luc cells, EC50 (separate day) [1]: 0.166 nM
isotype control antibody | – | 115% | 111% | 110% | 107% | 105% | 104% | 105% | 100% | –
isotype control antibody (Example 7) | – | – | – | – | – | – | – | – | – | action potential duration, cardiomyocytes chronically treated with 1 nM activin A plus isotype control [10]: 0.56 s; calcium flux falling time, cardiomyocytes treated with activin A plus isotype control [10]: 0.75 s; calcium flux rising time, cardiomyocytes treated with activin A plus isotype control [10]: 0.36 s; field potential amplitude, cardiomyocytes chronically exposed to activin A plus 25 nM isotype control [10]: 42.9 µV; field potential downstroke velocity, cardiomyocytes exposed to activin A plus 25 nM isotype control [10]: 0.019 V/sec; peak calcium handling amplitude, cardiomyocytes treated with activin A plus isotype control [10]: 484 RFU
